Laboratory results from publication PMC6294249, “CryoEM reveals how the complement membrane attack complex ruptures lipid bilayers” (Nature Communications, 2018).

Assays:
complement C6 = molecular target: T1, complement C6 (human, UniProt P13671 22-934); assay: cryo-EM structure; human MAC assembled on DOPC:DOPE liposomes by sequential addition of C5b6, C7, C8 and C9 (molar ratio 1:1:1:18, 1 h at 37 °C, then 4 °C overnight; 20 mM HEPES-NaOH, 150 mM NaCl, pH 7.4), solubilised in Cymal-5, purified by sucrose density centrifugation; open and closed conformations separated by 3D classification; settings: both partners purified
T1 construct: complement component C6, human; 10 domains (TSP1, TSP2, LDL, MACPF, EGF, TSP3, CCP1, CCP2, FIM1, FIM2); It stood in the assay as part of the bought C5b6 complex; FIM1 and FIM2 were left out of the atomic model (weak or no density); source: bought: Complement Technology (as the C5b6 complex)

[1] = molecular target: T2, complement C8 alpha chain (human, UniProt P07357 31-584, N-linked glycan at N407); assay: as above; settings: both partners purified
T2 construct: complement component C8 alpha chain, human; It stood in the assay as one chain of the bought C8 heterotrimer (α, β, γ); also called C8α; source: bought: Complement Technology (as C8)
T2 sequence (P07357 31-584): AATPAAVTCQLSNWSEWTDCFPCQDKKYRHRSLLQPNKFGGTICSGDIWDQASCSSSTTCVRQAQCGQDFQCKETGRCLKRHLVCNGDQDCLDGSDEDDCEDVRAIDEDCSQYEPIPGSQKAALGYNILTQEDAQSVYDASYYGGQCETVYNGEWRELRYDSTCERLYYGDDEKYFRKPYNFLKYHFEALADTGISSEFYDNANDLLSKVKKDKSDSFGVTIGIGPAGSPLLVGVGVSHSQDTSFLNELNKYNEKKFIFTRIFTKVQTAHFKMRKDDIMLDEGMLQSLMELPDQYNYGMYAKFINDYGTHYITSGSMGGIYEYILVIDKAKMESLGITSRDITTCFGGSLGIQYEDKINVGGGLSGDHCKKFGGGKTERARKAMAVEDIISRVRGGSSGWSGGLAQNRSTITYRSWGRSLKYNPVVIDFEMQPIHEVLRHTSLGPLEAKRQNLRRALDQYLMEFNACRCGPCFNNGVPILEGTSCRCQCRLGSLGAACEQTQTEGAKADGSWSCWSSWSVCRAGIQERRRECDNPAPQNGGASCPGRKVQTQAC

T1 sequence (P13671 22-934): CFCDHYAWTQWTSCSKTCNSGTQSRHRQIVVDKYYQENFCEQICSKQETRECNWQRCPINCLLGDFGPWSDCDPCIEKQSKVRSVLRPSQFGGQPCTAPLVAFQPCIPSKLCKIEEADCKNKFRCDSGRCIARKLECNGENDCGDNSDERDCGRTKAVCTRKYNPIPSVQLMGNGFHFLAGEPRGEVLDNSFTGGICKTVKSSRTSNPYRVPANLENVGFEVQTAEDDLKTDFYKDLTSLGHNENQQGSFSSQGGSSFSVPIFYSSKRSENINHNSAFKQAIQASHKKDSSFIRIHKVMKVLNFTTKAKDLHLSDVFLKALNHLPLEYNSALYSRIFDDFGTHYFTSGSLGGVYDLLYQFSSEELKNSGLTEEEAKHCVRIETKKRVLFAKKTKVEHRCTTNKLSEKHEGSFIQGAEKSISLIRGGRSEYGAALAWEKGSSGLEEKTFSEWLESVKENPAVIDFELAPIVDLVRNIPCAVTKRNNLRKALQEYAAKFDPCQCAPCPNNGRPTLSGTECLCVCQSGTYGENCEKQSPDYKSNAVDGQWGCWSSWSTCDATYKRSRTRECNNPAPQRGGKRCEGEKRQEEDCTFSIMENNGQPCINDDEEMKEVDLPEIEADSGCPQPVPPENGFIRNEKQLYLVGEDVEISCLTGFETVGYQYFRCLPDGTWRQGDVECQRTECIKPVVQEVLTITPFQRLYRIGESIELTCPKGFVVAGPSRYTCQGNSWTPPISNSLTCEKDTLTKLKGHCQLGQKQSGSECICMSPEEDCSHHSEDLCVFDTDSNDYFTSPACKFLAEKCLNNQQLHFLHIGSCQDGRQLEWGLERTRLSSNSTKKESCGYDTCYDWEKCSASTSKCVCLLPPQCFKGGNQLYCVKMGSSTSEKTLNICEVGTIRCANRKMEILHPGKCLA

B1: complement C9 (natural protein)
chain: not shown
modifications: N-linked glycans at N215, N256, N394; O-linked glycan at T427
notes: complement component C9, human; The model began from a homology model with C8β as template; source: bought: Complement Technology
binding result (complement C6): binds
binding result [1]: binds
